According to the supplement of paper PMC11246515:
± gives the standard deviation of the averaged measurements.

Test: total protein half-life in vivo (active degradation + dilution); higher = more stable protein
[1] = E. coli NCM3722 delta-clpP delta-lon delta-hslV, growth: N-lim chemostat, doubling time 6 h
[2] = E. coli NCM3722 delta-clpP, growth: N-lim chemostat, doubling time 6 h
[3] = E. coli NCM3722 delta-hslV, growth: N-lim chemostat, doubling time 6 h
[4] = E. coli NCM3722 delta-lon, growth: N-lim chemostat, doubling time 6 h
[5] = E. coli NCM3722 delta-smpB, growth: N-lim chemostat, doubling time 6 h
[6] = wild type E. coli NCM3722, growth: C-lim chemostat, doubling time 3 h
[7] = wild type E. coli NCM3722, growth: C-lim chemostat, doubling time 6 h
[8] = wild type E. coli NCM3722, growth: C-lim chemostat, doubling time 12 h
[9] = wild type E. coli NCM3722, growth: N-lim chemostat, doubling time 6 h
[10] = wild type E. coli NCM3722, growth: N-lim chemostat, doubling time 12 h
[11] = wild type E. coli NCM3722, growth: P-lim chemostat, doubling time 6 h
[12] = wild type E. coli NCM3722, growth: P-lim chemostat, doubling time 12 h

| Sequence | total protein half-life in vivo [1] | total protein half-life in vivo [2] | total protein half-life in vivo [3] | total protein half-life in vivo [4] | total protein half-life in vivo [5] | total protein half-life in vivo [6] | total protein half-life in vivo [7] | total protein half-life in vivo [8] | total protein half-life in vivo [9] | total protein half-life in vivo [10] | total protein half-life in vivo [11] | total protein half-life in vivo [12] |
| --- | --- | --- | --- | --- | --- | --- | --- | --- | --- | --- | --- | --- |
| MGKAVIAIHGGAGAISRAQMSLQQELRYIEALSAIVETGQKMLEAGESALDVVTEAVRLLEECPLFNAGIGAVFTRDETHELDACVMDGNTLKAGAVAGVSHLRNPVLAARLVMEQSPHVMMIGEGAENFAFARGMERVSPEIFSTSLRYEQLLAARKEGATVLDHSGAPLDEKQKMGTVGAVALDLDGNLAAATSTGGMTNKLPGRVGDSPLVGAGCYANNASVAVSCTGTGEVFIRALAAYDIAALMDYGGLSLAEACERVVMEKLPALGGSGGLIAIDHEGNVALPFNTEGMYRAWGYAGDTPTTGIYREKGDTVATQ | 4.9 ± 0.24 h | 3.77 ± 0.08 h | 3.58 ± 0.043 h | 3.62 ± 0.16 h | 3.16 ± 0.25 h | 2.78 ± 0.19 h | 4.99 ± 0.29 h | 11.2 ± 4.6 h | 3.47 ± 0.42 h | 4.78 ± 0.12 h | 4.75 ± 0.052 h | 8.26 ± 0.14 h |
| MNIQALLSEKVRQAMIAAGAPADCEPQVRQSAKVQFGDYQANGMMAVAKKLGMAPRQLAEQVLTHLDLNGIASKVEIAGPGFINIFLDPAFLAEHVQQALASDRLGVATPEKQTIVVDYSAPNVAKEMHVGHLRSTIIGDAAVRTLEFLGHKVIRANHVGDWGTQFGMLIAWLEKQQQENAGEMELADLEGFYRDAKKHYDEDEEFAERARNYVVKLQSGDEYFREMWRKLVDITMTQNQITYDRLNVTLTRDDVMGESLYNPMLPGIVADLKAKGLAVESEGATVVFLDEFKNKEGEPMGVIIQKKDGGYLYTTTDIACAKYRYETLHADRVLYYIDSRQHQHLMQAWAIVRKAGYVPESVPLEHHMFGMMLGKDGKPFKTRAGGTVKLADLLDEALERARRLVAEKNPDMPADELEKLANAVGIGAVKYADLSKNRTTDYIFDWDNMLAFEGNTAPYMQYAYTRVLSVFRKAEIDEEQLAAAPVIIREDREAQLAARLLQFEETLTVVAREGTPHVMCAYLYDLAGLFSGFYEHCPILSAENEEVRNSRLKLAQLTAKTLKLGLDTLGIETVERM | 5.58 ± 1.2 h | 4.719 ± 0.0071 h | 4.73 ± 0.089 h | 5.12 ± 0.092 h | 4.66 ± 0.21 h | 3.13 ± 0.036 h | 5.89 ± 0.47 h | 10.2 ± 0.2 h | 4.48 ± 0.06 h | 7.82 ± 0.086 h | 6.03 ± 0.33 h | 12 ± 0.36 h |
| MRFSTQMMYQQNMRGITNSQAEWMKYGEQMSTGKRVVNPSDDPIAASQAVVLSQAQAQNSQYTLARTFATQKVSLEESVLSQVTTAIQNAQEKIVYASNGTLSDDDRASLATDIQGLRDQLLNLANTTDGNGRYIFAGYKTETAPFSEEKGKYVGGAESIKQQVDASRSMVIGHTGDKIFDSITSNAVAEPDGSASETNLFAMLDSAIAALKTPVADSEADKETAAAALDKTNRGLKNSLNNVLTVRAELGTQLNELESLDSLGSDRALGQTQQMSDLVDVDWNATISSYIMQQTALQASYKAFTDMQGLSLFQLSK | 2.65 ± 0.11 h | > 8 h |  |  |  | 0.265 ± 0.026 h | 0.393 ± 0.063 h | 0.399 ± 0.39 h |  |  |  |  |
| MMHRLNLNGYEPDRHHEAAVAFCIHAGTDELTSPVHQHRKGQLILALHGAITCTVENALWMVPPQYAVWIPGGVEHSNQVTANAELCFLFIEPSAVTMPTTCCTLKISPLCRELILTLANRTTTQRAEPMTRRLIQVLFDELPQQPQQQLHLPVSSHPKIRTMVEMMAKGPVEWGALGQWAGFFAMSERNLARLIVKETGLSFRQWRQQLQLIMALQGLVKGDTVQKVAHTLGYDSTTAFITMFKKGLGQTPGRYIARLTTVSPQSAKPDPRQ | 4.97 ± 0.56 h |  |  |  |  |  |  |  |  |  |  |  |
| MQEIYRFIDDAIEADRQRYTDIADQIWDHPETRFEEFWSAEHLASALESAGFTVTRNVGNIPNAFIASFGQGKPVIALLGEYDALAGLSQQAGCAQPTSVTPGENGHGCGHNLLGTAAFAAAIAVKKWLEQYGQGGTVRFYGCPGEEGGSGKTFMVREGVFDDVDAALTWHPEAFAGMFNTRTLANIQASWRFKGIAAHAANSPHLGRSALDAVTLMTTGTNFLNEHIIEKARVHYAITNSGGISPNVVQAQAEVLYLIRAPEMTDVQHIYDRVAKIAEGAALMTETTVECRFDKACSSYLPNRTLENAMYQALSHFGTPEWNSEELAFAKQIQATLTSNDRQNSLNNIAATGGENGKVFALRHRETVLANEVAPYAATDNVLAASTDVGDVSWKLPVAQCFSPCFAVGTPLHTWQLVSQGRTSIAHKGMLLAAKTMAATTVNLFLDSGLLQECQQEHQQVTDTQPYHCPIPKNVTPSPLK | 5.29 ± 0.17 h |  |  |  |  |  |  |  |  |  |  |  |
| MGNNLLSAKATLPVYDLNNLAPRIVHLGFGAFHRAHQGVYADILATEHFSDWGYYEVNLIGGEQQIADLQQQDNLYTVAEMSADVWTARVVGVVKKALHVQIDGLETVLAAMCEPQIAIVSLTITEKGYFHSPATGQLMLDHPMVAADVQNPHQPKTATGVIVEALARRKAAGLPAFTVMSCDNMPENGHVMRDVVTSYAQAVDVKLAQWIEDNVTFPSTMVDRIVPAVTEDTLAKIEQLTGVRDPAGVACEPFRQWVIEDNFVAGRPEWEKAGAELVSDVLPYEEMKLRMLNGSHSFLAYLGYLAGYQHINDCMEDEHYRYAAYGLMLQEQAPTLKVQGVDLQDYANRLIARYSNPALRHRTWQIAMDGSQKLPQRMLDSVRWHLAHDSKFDLLALGVAGWMRYVGGVDEQGNPIEISDPLLPVIQKAVQSSAEGKARVQSLLAIKAIFGDDLPDNSLFTARVTETYLSLLAHGAKATVAKYSVK | 5.14 ± 0.34 h | 3.3 ± 0.17 h | 3.4445 ± 0.0012 h |  | 2.77 ± 0.18 h | 1.95 ± 0.0085 h | 4.22 h | 6.21 ± 3.1 h | 3.63 ± 0.19 h | 5.47 ± 0.58 h | 3.61 ± 0.7 h | 7.36 ± 0.28 h |
| MSRRVATITLNPAYDLVGFCPEIERGEVNLVKTTGLHAAGKGINVAKVLKDLGIDVTVGGFLGKDNQDGFQQLFSELGIANRFQVVQGRTRINVKLTEKDGEVTDFNFSGFEVTPADWERFVTDSLSWLGQFDMVCVSGSLPSGVSPEAFTDWMTRLRSQCPCIIFDSSREALVAGLKAAPWLVKPNRRELEIWAGRKLPEMKDVIEAAHALREQGIAHVVISLGAEGALWVNASGEWIAKPPSVDVVSTVGAGDSMVGGLIYGLLMRESSEHTLRLATAVAALAVSQSNVGITDRPQLAAMMARVDLQPFN [P0AEW9] | 5.41 ± 0.1 h | 6.29 ± 0.82 h | 6.11 ± 0.88 h | 5.57 ± 1.3 h | 5.34 ± 0.068 h | 3.11 ± 0.06 h | 7.05 ± 0.084 h | 12.2 ± 0.77 h | 5.61 ± 0.2 h | 10.74 ± 0.098 h | 6.22 ± 0.24 h | 13.5 ± 2.4 h |
